Results on two substances are retold here after patent US20040143095A1.

Assay [1] concerns the target mouse CRF receptor type 2β (mouse) (UniProt Q60748). In words: radioligand displacement ([125I-Tyr0,Glu1,Nle17]-sauvagine), CHO membranes.
The target in assay [2] is rat CRF receptor type 2α (rat) (UniProt P47866). The assay is described as above.
Chain of rat CRF receptor type 2α (rat) (P47866 20-411): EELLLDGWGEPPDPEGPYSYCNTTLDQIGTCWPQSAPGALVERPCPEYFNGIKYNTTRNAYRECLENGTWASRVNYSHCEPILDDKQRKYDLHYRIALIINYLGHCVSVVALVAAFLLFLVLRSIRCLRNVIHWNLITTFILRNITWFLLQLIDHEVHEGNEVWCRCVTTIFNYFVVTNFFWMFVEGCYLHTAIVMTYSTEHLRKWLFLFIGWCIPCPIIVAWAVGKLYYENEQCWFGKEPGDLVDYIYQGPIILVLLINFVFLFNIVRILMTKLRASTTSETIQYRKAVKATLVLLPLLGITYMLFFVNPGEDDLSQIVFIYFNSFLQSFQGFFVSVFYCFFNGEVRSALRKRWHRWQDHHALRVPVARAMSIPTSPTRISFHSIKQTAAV

Broadly, the Ki is the equilibrium dissociation constant of an inhibitor or competing ligand from its target. Lower therefore signals higher affinity. Turning to “Urocortin (rat) (from UniProt P55090 81-120) (peptide)”, the Ki was 0.62 nM in assay [1] and 2.2 nM in assay [2].
For “CRF (rat/human) (from UniProt P06850 154-194) (peptide)” the same measures were 5.2 nM and 10.1 nM.
